Sequences and labels used below:
B1: 小鼠IGF-1R(1-903)-Fc (Fc fusion)
chain: not shown
notes: range 1-903; also called mIGF-1R-Fc; mIGF1R; not shown: C-terminal human IgG1-Fc tag
B6: M13-C06 antibody (full-length, IgG4 version not stated) (antibody, V domains shown)
VH: EVQLLESGGGLVQPGGSLRLSCAASGFTFSIYRMQWVRQAPGKGLEWVSGISPSGGTTWYADSVKGRFTISRDNSKNTLYLQMNSLRAEDTAVYYCARWSGGSGYAFDIWGQGTMVTVSS
VL: DIQMTQSPLSLSASVGDRVTITCQASRDIRNYLNWYQQKPGKAPKLLIYDASSLQTGVPSRFGGSGSGTDFSFTIGSLQPEDIATYYCQQFDSLPHTFGQGTKLEIK
notes: Fully human full-length antibody; In tr-FRET it carried a europium chelate (10.3:1 Eu:C06); also called M13-C06_Ab; Eu-C06

Assay [1] has as its target B6. Put plainly: tr-FRET competition against Cy5-IGF1R-His10 for Eu-C06.
For assay [2], the target named is human IGF-1R expressed on cells (human). Put plainly: cell-based or functional assay.
Assay [3] has as its target T1, 人INSR(28-956)-His 10 (human, UniProt P06213 28-956).
T1 construct: range 28-956; Bought from R&D Systems; also called INSR-His 10; rh-INSR (R&D Systems #1544-IR)
Put plainly: ELISA on plates coated with rh-INSR.

In assay [4] the target is B1. Put plainly: SPR, compared with hIGF-1R-Fc.
For assay [5], the target named is B1. Put plainly: SPR, second run with 3 h dissociation. Background: SPR reads the build-up and loss of mass on a sensor chip optically.
In assay [6] the target is B1. Put plainly: SPR, receptor-Fc captured by anti-human IgG-Fc, Fab injected, 1:1 model.
Assay [7] addresses B1. Put plainly: SPR, receptor-Fc captured by anti-human IgG-Fc, Fab injected, 1:1 model (also printed as 89.1nM).
Assay [8] concerns the target T1, 人INSR(28-956)-His 10. The experiment in a line: tr-FRET competition (Eu-C06 / Cy5-hIGF-1R-His10).

T1 sequence (P06213 other isoform, or with tags, fused parts or gaps limits assumed): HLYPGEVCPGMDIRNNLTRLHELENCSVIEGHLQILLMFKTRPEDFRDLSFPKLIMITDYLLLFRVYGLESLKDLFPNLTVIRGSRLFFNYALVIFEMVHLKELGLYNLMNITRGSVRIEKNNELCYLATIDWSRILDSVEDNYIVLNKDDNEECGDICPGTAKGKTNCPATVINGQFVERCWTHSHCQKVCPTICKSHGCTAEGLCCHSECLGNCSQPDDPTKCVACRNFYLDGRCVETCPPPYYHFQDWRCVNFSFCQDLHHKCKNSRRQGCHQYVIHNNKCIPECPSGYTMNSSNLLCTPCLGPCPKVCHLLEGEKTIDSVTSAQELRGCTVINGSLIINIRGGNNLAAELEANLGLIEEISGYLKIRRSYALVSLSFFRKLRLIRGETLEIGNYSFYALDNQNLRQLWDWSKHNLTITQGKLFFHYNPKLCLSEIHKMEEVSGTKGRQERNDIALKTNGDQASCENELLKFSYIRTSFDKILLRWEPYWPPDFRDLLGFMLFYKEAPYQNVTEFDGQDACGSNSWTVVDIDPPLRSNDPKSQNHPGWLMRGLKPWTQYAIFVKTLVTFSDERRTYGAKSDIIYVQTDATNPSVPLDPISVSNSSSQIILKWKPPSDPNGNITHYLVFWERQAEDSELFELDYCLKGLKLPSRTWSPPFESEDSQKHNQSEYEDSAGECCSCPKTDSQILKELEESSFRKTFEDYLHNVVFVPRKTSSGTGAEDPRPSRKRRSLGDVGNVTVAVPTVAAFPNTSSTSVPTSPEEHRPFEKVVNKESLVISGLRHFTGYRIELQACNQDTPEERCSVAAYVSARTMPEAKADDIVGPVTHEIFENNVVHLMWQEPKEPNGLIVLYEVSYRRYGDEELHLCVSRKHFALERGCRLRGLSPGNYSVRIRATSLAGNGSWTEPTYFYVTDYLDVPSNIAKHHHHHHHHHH
Chain of 小鼠IGF-1R(1-903)-Fc (Q60751 31-933 limits assumed): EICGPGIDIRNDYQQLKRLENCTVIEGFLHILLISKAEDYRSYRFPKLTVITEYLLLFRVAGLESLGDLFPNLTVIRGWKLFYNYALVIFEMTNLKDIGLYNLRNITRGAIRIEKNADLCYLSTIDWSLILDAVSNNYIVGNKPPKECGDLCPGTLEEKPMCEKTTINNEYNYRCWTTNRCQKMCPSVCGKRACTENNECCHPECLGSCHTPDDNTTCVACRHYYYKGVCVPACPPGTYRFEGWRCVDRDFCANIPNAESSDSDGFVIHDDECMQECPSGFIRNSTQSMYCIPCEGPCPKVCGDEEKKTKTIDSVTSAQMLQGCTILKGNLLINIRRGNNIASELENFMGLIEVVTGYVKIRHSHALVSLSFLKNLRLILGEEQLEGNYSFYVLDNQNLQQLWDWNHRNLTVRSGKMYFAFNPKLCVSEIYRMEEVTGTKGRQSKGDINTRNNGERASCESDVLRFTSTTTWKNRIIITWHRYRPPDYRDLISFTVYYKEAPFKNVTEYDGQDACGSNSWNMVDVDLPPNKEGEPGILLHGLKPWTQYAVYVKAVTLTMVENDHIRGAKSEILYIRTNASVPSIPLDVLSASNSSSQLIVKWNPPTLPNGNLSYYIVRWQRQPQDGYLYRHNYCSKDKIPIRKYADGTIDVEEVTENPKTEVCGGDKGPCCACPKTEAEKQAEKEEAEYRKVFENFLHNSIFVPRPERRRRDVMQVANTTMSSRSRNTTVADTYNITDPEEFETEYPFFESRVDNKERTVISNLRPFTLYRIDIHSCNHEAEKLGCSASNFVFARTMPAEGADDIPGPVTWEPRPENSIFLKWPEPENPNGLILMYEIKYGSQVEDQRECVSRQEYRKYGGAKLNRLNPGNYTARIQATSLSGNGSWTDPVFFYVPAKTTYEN

As a reminder, the IC50 is the concentration that inhibits the measured activity by half. A high value points to weaker potency in that assay. As for B1, the IC50 in assay [1] was over 100 µg/mL.

B2: M14-G11.G4.P (antibody, human IgG4, V domains shown, not shown: a dimerising Fc or GST)
VH: EVQLLESGGGLVQPGGSLRLSCAASGFTFSNYPMYWVRQAPGKGLEWVSRISSSGGRTVYADSVKGRFTISRDNSKNTLYLQMNSLRAEDTAVYYCARDRWSRSAAEYGLGGYWGQGTLVTVSS
VL: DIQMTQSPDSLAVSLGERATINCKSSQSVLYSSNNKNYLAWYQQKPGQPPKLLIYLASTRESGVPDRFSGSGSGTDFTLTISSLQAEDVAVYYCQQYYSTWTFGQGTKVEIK
On to B2, for which the “inhibition of IGF-1- and IGF-2-mediated IGF-1R phosphorylation in MCF-7 cells, EC50” value in assay [2] is under 1 nM.

B3: M12-E01 Fab (Fab, V domains shown)
VH: EVQLLESGGGLVQPGGSLRLSCAASGFTFSPYSMLWVRQAPGKGLEWVSSIGSSGGSTRYADSVKGRFTISRDNSKNTLYLQMNSLRAEDTAMYYCARVRGILHYDILIGRNLYYYYMDVWGKGTTVTVSS
VL: QYELTQPPSVSEAPRQRVTISCSGSSSNIGNNAINWYQQLPGKPPKLLIYYDDLLPSGVSDRFSGSKSGTSGSLAISGLQSEDEADYYCAAWDDNLNGVIFGGGTKLTVL
notes: Human Fab from a phage library (VH3-23, lambda light chain)
For the molecule B3, in the assay with 人INSR(28-956)-His 10 [3], the binding result is on record as “no binding (tested: 2μM)”.

B4: M14-B01 Fab (Fab, V domains shown)
VH: EVQLLESGGGLVQPGGSLRLSCAASGFTFSNYHMAWVRQAPGKGLEWVSVISPTGGRTTYADSVKGRFTISRDNSKNTLYLQMNSLRAEDTATYYCARAGYSYGYGYFDYWGQGTLVTVSS
VL: DIQMTQFPATLSVSPGERATLSCRASQSVMRNLAWYQQKPGQPPRLLIYGASKRATGIPARFSGSGSGTAFTLTISNLEPEDFAVYYCHQRSTWPLGTFGPGTKLEAK
notes: Human Fab from a phage library (VH3-23, kappa)
As to B4, in the assay with 人INSR(28-956)-His 10 [3], the binding result is recorded as “no binding (tested: 2μM)”.

B5: M13-C06 Fab (Fab, V domains shown)
VH: EVQLLESGGGLVQPGGSLRLSCAASGFTFSIYRMQWVRQAPGKGLEWVSGISPSGGTTWYADSVKGRFTISRDNSKNTLYLQMNSLRAEDTAVYYCARWSGGSGYAFDIWGQGTMVTVSS
VL: DIQMTQSPLSLSASVGDRVTITCQASRDIRNYLNWYQQKPGKAPKLLIYDASSLQTGVPSRFGGSGSGTDFSFTIGSLQPEDIATYYCQQFDSLPHTFGQGTKLEIK
notes: Human Fab from a phage library (VH3-23 germline framework, kappa light chain)
For orientation: koff means the rate constant with which the complex falls apart. High values mean fast dissociation, low ones slow dissociation. Usually kon stands for the rate constant with which the complex forms. Lower therefore signals slower complex formation. Broadly, the Kd is the equilibrium constant for the complex coming apart. Turning to B5, the “fold decrease of binding against human IGF-1R” value with 小鼠IGF-1R(1-903)-Fc [4] is 100 fold. For the same molecule, the binding result in the assay with 人INSR(28-956)-His 10 [3] is “no binding (tested: 2μM)”. Also, the off-rate (koff) with 小鼠IGF-1R(1-903)-Fc [5] amounted to 4.2e-05 s⁻¹. The same molecule displayed a kon with 小鼠IGF-1R(1-903)-Fc [6] of 471 M⁻¹ s⁻¹. This molecule had a Kd with 小鼠IGF-1R(1-903)-Fc [7] of 89.1 nM.

On to B6, for which, in the assay with 人INSR(28-956)-His 10 [8], the binding result was “no binding (tested: IC50以上100倍的浓度)”.
